In article PMC4938799, “LD Motif Recognition by Talin: Structure of the Talin-DLC1 Complex” (Structure(London, England:1993), 2016):

Experiments:
[1] = tested on: endogenous paxillin; test: GST pull-down of endogenous paxillin in A549 and H358 cells; format: cell-based, human; conditions: anti-paxillin immunoblot
Excerpt: To investigate whether the biological effects of GST-R8 might be partly mediated via paxillin, we first confirmed that endogenous paxillin is expressed in cell lines A549, H358, and 293T (Figure S6A). […] As a positive control, HEK293 cells were co-transfected with a paxillin-DDK construct (OriGene) and GST-R8 (wild-type, R1544E and 2E mutants), followed by a GST pull-down assay.
Figure S6, related to figure 5. Binding of GST-talin R8 to endogenous paxillin is undetectable in A549 and H358 cells.
(A) The expression of endogenous paxillin in cell lines. Cell extracts were assayed by immunoblotting with anti-paxillin antibody.
(B) A complex of GST-talin R8 with endogenous paxillin is undetectable in A549 (top) and H358 (bottom) cells. Cells were transfected with the GST constructs indicated, and cell extracts subjected to a glutathione bead pull down assay followed by immunoblotting with anti-GST and anti-paxillin antibodies on the same membrane.
(C) Wild-type GST-talin R8 forms a complex with transfected paxillin in 293T cells. […]
G418 colony growth, soft agar growth and cell migration assays - As described previously (Qian et al., 2009), transfected A549 cells were counted, and equal numbers of cells were seeded in […]

[2] = tested on: endogenous RIAM; test: GST pull-down of endogenous RIAM in A549 cells; format: cell-based, human; conditions: A549 cell extracts, anti-RIAM immunoblot
Excerpt: However, as talin R8 interacts with RIAM ([Goult et al., 2013b]) and paxillin (shown here) in addition to DLC1, we used several approaches to evaluate whether binding of talin R8 to endogenous RIAM or paxillin might have contributed to the observed results. For RIAM, the level of expression in the cell lines used here varied from very low to undetectable. To detect RIAM protein in any of the cell extracts, we had to use an anti-RIAM immunoprecipitation step followed by anti-RIAM immunoblotting. Using these conditions, endogenous RIAM was detected in A549 and H358 cells, but not in 293T cells (Figure S5A).
Figure S5, related to figure 6. […]
form a detectable complex with GST-talin R8.
(A) The expression of endogenous RIAM in cell lines. Cell extracts were subjected to immunoprecipitation followed by immunoblotting with anti-RIAM antibody.
(B) A complex between GST-talin R8 and endogenous RIAM is undetectable in A549 cells.
A549 cells were co-transfected with GFP-DLC1 and the GST constructs indicated. Cell extracts were subject to a glutathione bead pull down assay followed by immunoblotting with anti-GST and anti-RIAM antibodies on the same membrane (left). No complex between GST-talin R8 and RIAM could be detected. Under the same conditions, wild-type GST-R8 pulled-down the co-transfected GFP-DLC1; the immunoblot with anti-GST and anti-DLC1 on the same membrane is shown (right). […]

B1: GST-R8: GST-tagged talin R8, amino acids 1,453–1,580 (protein)
chain: NSQAGQQGLVEPTQFARANQAIQMACQSLGEPGCTQAQVLSAATIVAKHTSALCNSCRLASARTANPTAKRQFVQSAKEVANSTANLVKTIKALDGDFTEENRAQCRAATAPLLEAVDNLSAFASNPE
modifications: left off: GST, end not stated, kept
complex with endogenous paxillin [1]: insufficient to detect binding | complex with endogenous paxillin ([1]; listed as GST-talin R8): undetectable | complex with endogenous RIAM [2]: did not detect a GST-R8 complex | complex with endogenous RIAM ([2]; listed as GST-talin R8): undetectable
